Experimental findings from the nanobody polyreactivity screen of Harvey et al. (2022) are described below.

The nature of this series: yeast display, Sf9 membrane polyspecificity reagent, FACS + sequencing; frameworks hold sequencing errors. Summed up: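 After 36–48 hours of galactose induction, yeast (Saccharomyces cerevisiae BJ5465) displaying a synthetic nanobody library were stained at 4 °C for 1 hour with 10% biotinylated, detergent-solubilized Sf9 membrane reagent. Streptavidin microbeads enriched the stained cells before FACS sorting into low and high (top ~1%) gates on anti-HA and streptavidin fluorescence. Each clone's polyreactivity label reflects its gate of origin.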
As to “QVHLVESGGGLVQAGGSLRLSCDASGRTFFPYGMGWYRQAPGKQRELVATISWSGGSTHYADSVKGRFTISRDNAKNTVYLQMNSLKPEDNAVYYCNKTSFLVKLDYWGQVTQVTVSS”, the “polyreactivity (PSR sort gate)” value was “high polyreactivity”.

Consider “QVHLVESGGGLVQAGGSLRLSCDASGSIFPVNAMGWYRQAPGKERELVATITWRGGRTYYADSVKGRFTISRDNAKNTVYLQMNSLKPEDTAVYYCAARLLYRHFGYWGQGTQVTVSS”, for which the “polyreactivity (PSR sort gate)” value is “high polyreactivity”.

Consider “QVHLVESGGGLVQAGGSLRLSCGASGIIFFHYAMGWYRQAPGKERELVAAITWSGGYTYYADSVKGRFTISRDNAKNTVYLQMNSLKPEDTAVYYCNAVLHRRLYDYWGQGTQVTVSS”, for which the “polyreactivity (PSR sort gate)” value is “high polyreactivity”.

As to “QVHLVESGGGLVQAGGSLRLSCGASGSIFFIYAMGCYRQAPGKERELVATITSGGSTYYADSLKGRFTISRDNAKNTVYLQMNSLKPEDTAVYYCAVDEYFAFDYWGLGTQVTVSS”, the “polyreactivity (PSR sort gate)” value is on record as “low polyreactivity”.

Consider “QVHLVESGGGLVQAGGSLRLSCPASGRIFAIYAAMGWTRQAPGKERELVAAISSGDNTNYADSVKGRFTISRDNAKNTVYLQLNSLKPDDTAVYYCNTNYGPTHRARYYYWGQGTQVTVSS”, for which the “polyreactivity (PSR sort gate)” value is “low polyreactivity”.

For the sequence “QVHLVESGGGLVQAGGSLRLSCPASGRIFRVYAMGWYRQEPGKERELVAAISYSGGRTFYADSVKGRFTISRDNAKNTVYFQMNSLKPEDTAVYYGAAKSYYTQALPPFDYWGQGTQVTVSS”, the “polyreactivity (PSR sort gate)” value is on record as “low polyreactivity”.

With “QVHLVESGGGLVQAGGSLRLSCPASGSTFYDNAMGCYRQPPGKERELVARIRWSGVRTYYADSVKGRFTISRDNAKNTVYLQMNSLKPEDTAVYYCAAGRPSRHWWSLDYYFWGQGTQVTVSS”, the “polyreactivity (PSR sort gate)” value is “low polyreactivity”.

Turning to “QVHLVESGGGLVQAGGSLRLSCSASGRTFPYNAMGWYRQSPGKERELVAAISWRGGSTYYADSVKGRFTISRDNAKNTVYLQMNSLKPEDTAVYYCNALYPVSYDHRGDYWGQGTQVTVSS”, the “polyreactivity (PSR sort gate)” value is reported as “high polyreactivity”.

As for “QVHLVESGGGLVQAGGSLRLSCSASGSIFGKYAMGWYRQAPGKERELVAAISWSGTSTYYADSVKGRFTISRDNAKNTVYLQMNSLKPEDTAVYYCAAESRVYGYNYWGQGTQVTVSS”, the “polyreactivity (PSR sort gate)” value is reported as “high polyreactivity”.

As to “QVHLVESGGGLVQAGGSLRLSCSASGSILKYYAMGWYRQAPGKERELVAAISRSGGSTYYADSVKGRFTISRDNAKNTVYLHMNSLKPEDTAVYYCAAYYNFPYHGSDYWGQGTEVTVSS”, the “polyreactivity (PSR sort gate)” value is “high polyreactivity”.

For “QVHLVESGGGLVQAGGSLRLSSAASGFIFLQYAMGWYRQAPGKEREFVAVISRSGGGTYYADSVKGRFTISRDNAKNTVYLQMNSLKPEDTAVYYCAALGATRSRYDYWGQGTQVTVSS”, the “polyreactivity (PSR sort gate)” value was “high polyreactivity”.

As for “QVHLVESGGGLVQAGGSLRLSSAASGRIFKYYTMGWYRHAPGKERELVASITGTGGSTYYADSVKGRFTISRDNAKNTVYLQMNRLKPEDTAVYYCAARLSVLGGYRGRNAWRFDHWGQGTKVTVSS”, the “polyreactivity (PSR sort gate)” value is on record as “high polyreactivity”.

Turning to “QVHLVESGGGLVQAGGSLRLSSAASGSIFDGNGMGWYRQAPGKERELVASISGDGSTNYADSVKGRFTISRDNAKNTVYLQMNSLKPEDTAVYYCNARSYLTRPWWWGGPYDYWGQGTKVTVSS”, the “polyreactivity (PSR sort gate)” value was “low polyreactivity”.

In the case of “QVHLVESGGGLVQAGGSLRLSSAASGSIFQVYAMGWYRQAPGTERELVAGISRGGSTYYADSVKGRFTISRDNAKNTVYLQMNSLKPEDTAVYYCAARGGGIRAYGSNRRSFYYWGQGTQVTVSS”, the “polyreactivity (PSR sort gate)” value was “high polyreactivity”.

For “QVHLVESGGGLVQAGGSLRLSSAASGSNFGLNAMGWSRQAPGKERELVAAITWSGGSSTYYADTVKGRLTISRDNAKNSVYLQMKSLKPEDTAVYYCAARRVFIPYYVRFYYWGQGTQVTVSS”, the “polyreactivity (PSR sort gate)” value is “high polyreactivity”.

Regarding “QVHLVESGGGLVQAGGSLRLSSAASGSTFVFNAMAWYRQAPGKESELVAGISWSGGSTYYADSVKGRFTISRDNSKNTVYLQMKSLKPEDTAVYYCAVDGYFWGYYERDYSGQGTQVTVSS”, the “polyreactivity (PSR sort gate)” value is “low polyreactivity”.

Take “QVHLVESGGGLVQAGGSLRLSSADTGYTFVNYARGWNRQAPGKERELVAAISDRGGSMYYADAVKGRFTISRDNAKNTVDLQMNSLKPEETAVYYCAAQHTGKYTGTRYFYWGQGTQVTVSS”: the “polyreactivity (PSR sort gate)” value is listed as “high polyreactivity”.

For “QVHLVESGGGLVQAGGSLRLTCAASGSTFVPYAMGWYRQAPGKERELVAAISTSSGGTYYADSVKGRFTISRDNEKNTVYLQMNSLKPEDTAVYYCAAELVYVPHWLIYDYWGQGTQVTVSS”, the “polyreactivity (PSR sort gate)” value was “high polyreactivity”.

On to “QVHLVESGGGLVQAGGTLRLRCAASGSTFERYVMGWYRHPLGKKGSWLPVLNHNGCSTYYAESVKGRFTISRDNAKNTVYLQMNSLKQEVTAVYYCAAYFRTVLDYGSWGQGTQVTVSS”, for which the “polyreactivity (PSR sort gate)” value is listed as “low polyreactivity”.

With “QVHLVESGGGLVQAGGTLRLSCAASGLFARNAMGWYRQAPGKERELVAAINRSGGSTYYADSVKGRFTISRDNAKNTVYLQMNSLKPEDTAVYYCNKAFTHTKDRSPIAYEYGYWGQGTQVTVSS”, the “polyreactivity (PSR sort gate)” value was “low polyreactivity”.

As to “QVHLVESGGGLVQAGRSLRLSCAASGSTFSYNAMGWSRQAPGKERELVAAISNGGSTNYADSVKGRFTISRDNAKYTVFLQMNSLKPEDTAVYYCAAHTYSELSWLVVYPYDYWGQGTQVTVSS”, the “polyreactivity (PSR sort gate)” value is reported as “low polyreactivity”.

For “QVHLVESGGGLVQARVSLRLSCAASGSTFFVYTMGWYRQAPGKETEFVATIRRGGNTYADSVKGRFTISRDNAKNSVYLQMNSLKPEDTAVYFCAVVVYQGFRSKYYYWGQGTQVTVSS”, the “polyreactivity (PSR sort gate)” value is “high polyreactivity”.

As to “QVHLVESGGGLVQPGGTLRLTCAASGSTFGSNARGWYRLAPGKESELVAAITRRGGSTYYADSVKGRFTISRDNAKNTVDLQMNSLKPEDTAVYYCDNVYYYLYTRYDYWGQGTEVTVSS”, the “polyreactivity (PSR sort gate)” value is listed as “low polyreactivity”.

For “QVHLVESGGRLVQAGGSLRLICAASGRIFFTYAMGWYRQAPGKDRELVASITGSGGSTYYADSVKGSFTISRDNAKNTVYLQMNRLKPEDTAVYYCAAALFRRQLYRKFYYWGQGTQVTVSS”, the “polyreactivity (PSR sort gate)” value is reported as “low polyreactivity”.

On to “QVHLVESGGRLVQAGGSLRLSCAASGFTFSYYAMGWYRQAPGKERELVASISRSVNTYYADSVKGRFTISRDNAKNTVYLQMNSLKTEDTAVYYCAAKRISYYSYNFDYWGQGTQVTVSS”, for which the “polyreactivity (PSR sort gate)” value was “high polyreactivity”.

As to “QVHLVESGGWLVQAGGSLRLSCAASGLTFYNYAMGWYRPAPGKEREFVAAISRSGGTTYYADSVKGRFTISRDNAKYTVYLQMISLKPEDTAVYYCNAQWWRYWPSQVIFDYWGQGSQVTVSS”, the “polyreactivity (PSR sort gate)” value is given as “high polyreactivity”.

Consider “QVHLVESGRGLFQAGGSLRLSCAASGFTFTTYVMGWYRQAPGKERELVAAITSGGSTNYADSVKGRFTISRDNAKNTVFLQMNSLKPEDTAVYFCNAVKDDGKGSYPNLHVFDYDYWGQGTQVTVSS”, for which the “polyreactivity (PSR sort gate)” value was “low polyreactivity”.

On to “QVHLVESGRGLVQAGGSLRLSCAASGIIFYDYSMGWYRQAPGKERELVAAISWDGVSSYYADSVKGRFTISRDNAKNTVYLQMNSLKPEATAVYYCAARAVTDDDYEFDDWGQGTQVTVSS”, for which the “polyreactivity (PSR sort gate)” value was “low polyreactivity”.

For “QVHLVESVGGLVQAGGSLRLSCAASGSIFYYNAMGWYRQAPGKERELVAAISSGGSTNYADSVKGRFTISRDNAKNTVYLQMNSLKPEDTAVYYCATGWSWYHPDYDYWGQGTQVTVSS”, the “polyreactivity (PSR sort gate)” value is listed as “low polyreactivity”.

With “QVHLVETGGGLVQAGGSLRLSCAASGFTFAYYAMGWYRQAPGKEREFVAVITWSGGDKYYADSVKGRFTISRDIAKNTVYLQMNSLKPVDTSVYYCNADAYRITRYGYDYWGQGTQVTVSS”, the “polyreactivity (PSR sort gate)” value is reported as “high polyreactivity”.

“QVHLVETGGGLVQAGGSLRLSCGASGYIFSQYAMGCYRQAPGKERELVADITTSAGSTYYADSVKGRFTISRDNAKNTVYLQMNSVIPEDTAVYYCAADVYGHSYYDYDYWGQGTQVTVSS”: the “polyreactivity (PSR sort gate)” value is “low polyreactivity”.

Take “QVHLVVSGGGLVQAGGSLRLSCAASGRLLYKYAMGWNRQAPGKERELVAAISGSGGRTYYADSVKGRFTISRDNAKNTVYLQMNSLKPEDTAVYYCAAVHPFRHVLYDYWGQGTQVTVSS”: the “polyreactivity (PSR sort gate)” value was “low polyreactivity”.

Regarding “QVHPVESGGGLVQAGGSLRLSCAASGGILYRNAMGWYRQAPGKERELVAAISSRGGSTYYADSVKGRFTISRDNAKNTVYLQMNSLKPEDTAVYYCAVVNRSAQSLKYEYWGQGTQVTVSS”, the “polyreactivity (PSR sort gate)” value was “high polyreactivity”.

“QVHQQESGGGLMQAGGSQRLSCAASGSISYYSDMGRYRQAPGKEREFVAGIGYGTTTNYADSVKGRFTTSRDNAKNTVYLQMISMKPEDNAVYYCAAYQGNGYEFYYWGQGTQVTVRS”: the “polyreactivity (PSR sort gate)” value is listed as “low polyreactivity”.

For “QVHRGETGGGLVQAGGSLRLSCSASGLSFPHYAMGWYRQAPGKERDLVADINLSGGSNTYYADSVKGRFTISRDNAKNTVYLMMNSLKPEDTPVYDCNAVSWENWYHIMDYWGQGTQVTVSS”, the “polyreactivity (PSR sort gate)” value is on record as “high polyreactivity”.

As for “QVHRVESGGRLVPAGGSLRLSCAASGFTFSVNAMGWYTPPPGKEMELVAAISSGGSTSYADSVKGRFTISRDNAKNTVYLQMNSLKPEDTAVYYCAAEYHSAGSLYTYSKYYHWGQGTQVTVSS”, the “polyreactivity (PSR sort gate)” value is “low polyreactivity”.

With “QVHVVESGGGLVQAGGSLRLSCAASGFTFAKYAMGWYRQAPGKERELVAVITSSGGRTYYADSVKGRFTISRDNAKNTVYLQMNSLKPEDTAVYYCNAGKYVYATSQYDYWGQGTQVTVSS”, the “polyreactivity (PSR sort gate)” value was “high polyreactivity”.

Consider “QVKHVESGGGLVQAGASLRLSCAASGSIFAYNAMGCYIQAPGKERELVATISRGGNTNYADSVKGRFTISRDNAKNSVYLQMNSLKPEDTAVYYCNVLGRDIDHEYGYWGQGTQVTVSS”, for which the “polyreactivity (PSR sort gate)” value was “high polyreactivity”.

On to “QVKLEESGGCLVQAGGSLRLSCAASGFTFEENAMGWYRQAPGKERELVAAINWSGGNTYYADSVKGRFTISRDNAKNTVYLQMNSLKPEDTAVYYCAADSPRYYYWVGPYYGYDYWGQGTQVTVSS”, for which the “polyreactivity (PSR sort gate)” value is listed as “high polyreactivity”.

For “QVKLEESGGGLVQAGGSLRLSCAASGRTFTTYSMGCYRQAPGKERELVAAISGSGGSTYYADSVKGRFTISRDNAKNSVYVQMNSLKPEDTAVYYCATAYYYHGGYYYPYDDYWGQGTQVTVSS”, the “polyreactivity (PSR sort gate)” value is listed as “low polyreactivity”.
